Like-named read-outs stand apart in the source and are kept apart here.

Results on six molecules are retold here after US20240285753A1 (DUKE UNIVERSITY, published 2024).

The target of one assay is T1, FP-13.
T1 epitope scaffold: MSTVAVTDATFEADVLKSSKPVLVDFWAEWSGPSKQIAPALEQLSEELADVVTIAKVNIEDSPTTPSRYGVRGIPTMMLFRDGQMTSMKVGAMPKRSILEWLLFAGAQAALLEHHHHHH
Briefly: ELISA, coated antigen, mAb titrated. Background: In an ELISA, binding on a coated surface is turned into a signal by an enzyme label.

Assay [1] concerns the target T2, S2hlx-Ex25.
T2 chain: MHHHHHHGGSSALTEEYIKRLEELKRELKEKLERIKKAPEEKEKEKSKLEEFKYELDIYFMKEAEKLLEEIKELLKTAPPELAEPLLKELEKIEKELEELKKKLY
Put plainly: ELISA; antigen coated, mAb titrated.

Assay [2] deals with T3, SARS-CoV-2 spike (WA-2, 2P) (SARS-CoV-2, UniProt P0DTC2 14-1208). Put plainly: ELISA, coated spike, mAb titrated.
Assay [3] addresses T3, SARS-CoV-2 spike (WA-2, 2P). Put plainly: ELISA, coated antigen, mAb titrated.
Assay [4] shares this target. Put plainly: ELISA, coated spike, mAb titrated. The source holds these as a separate data set.
Assay [5] concerns the target SARS-CoV-2 spike (WA-2, 2P) (SARS-CoV-2, UniProt P0DTC2 14-1208).
Assay [6] concerns the target T4, S2hlx-Ex34.
T4 chain: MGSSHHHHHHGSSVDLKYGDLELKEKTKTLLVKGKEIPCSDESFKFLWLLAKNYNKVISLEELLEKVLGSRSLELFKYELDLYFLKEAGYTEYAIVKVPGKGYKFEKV
Put plainly: SPR, mAb captured, scaffold as analyte. On the technique in general: Surface plasmon resonance follows binding to a sensor surface in real time, without labels.

Assay [7] addresses T5, S2hlx-Ex37.
T5 chain: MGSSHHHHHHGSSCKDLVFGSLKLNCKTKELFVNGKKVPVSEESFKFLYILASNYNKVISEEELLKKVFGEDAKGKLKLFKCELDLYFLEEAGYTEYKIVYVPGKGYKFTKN
Briefly: SPR, mAb captured, scaffold as analyte.

The target in assay [8] is T6, S2hlx-Ex54.
T6 chain: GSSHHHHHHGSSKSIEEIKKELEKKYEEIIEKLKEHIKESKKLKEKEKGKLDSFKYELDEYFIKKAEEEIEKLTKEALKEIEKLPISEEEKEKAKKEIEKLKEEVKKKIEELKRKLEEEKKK
Put plainly: SPR, mAb captured, scaffold as analyte.

A further assay has as its target T7, S2hlx-Ex15 F1148A.
T7 epitope scaffold: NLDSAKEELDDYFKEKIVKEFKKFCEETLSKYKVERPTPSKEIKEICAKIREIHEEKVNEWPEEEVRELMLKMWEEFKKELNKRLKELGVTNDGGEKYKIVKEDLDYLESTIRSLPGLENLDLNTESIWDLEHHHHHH
Briefly: ELISA; antigen coated, mAb titrated.

Assay [9] concerns the target T8, S2hlx-Ex15.
T8 chain: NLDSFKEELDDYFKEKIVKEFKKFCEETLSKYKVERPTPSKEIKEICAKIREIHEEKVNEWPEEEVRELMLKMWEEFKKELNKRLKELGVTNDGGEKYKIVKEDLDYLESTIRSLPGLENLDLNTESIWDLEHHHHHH
Put plainly: ELISA; antigen coated, mAb titrated.

Another assay concerns the target S2hlx-Ex2-Trx. Put plainly: ELISA, coated antigen, mAb titrated.
The target of another assay is S2hlx-Ex4-Trx. Briefly: ELISA, coated antigen, mAb titrated.
In assay [10] the target is T9, S2hlx-Ex46.
T9 epitope scaffold: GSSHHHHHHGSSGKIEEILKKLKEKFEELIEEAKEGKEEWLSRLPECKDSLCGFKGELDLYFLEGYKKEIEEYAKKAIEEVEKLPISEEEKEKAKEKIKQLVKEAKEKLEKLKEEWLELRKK
Put plainly: ELISA; antigen coated, mAb titrated.

The target in assay [11] is T4, S2hlx-Ex34. Put plainly: ELISA; antigen coated, mAb titrated.
In assay [12] the target is T6, S2hlx-Ex54. Put plainly: ELISA; antigen coated, mAb titrated.
Assay [13] deals with T8, S2hlx-Ex15. Put plainly: SPR, mAb captured, antigen as analyte.
In assay [14] the target is T10, S2hlx-Ex17.
T10 chain: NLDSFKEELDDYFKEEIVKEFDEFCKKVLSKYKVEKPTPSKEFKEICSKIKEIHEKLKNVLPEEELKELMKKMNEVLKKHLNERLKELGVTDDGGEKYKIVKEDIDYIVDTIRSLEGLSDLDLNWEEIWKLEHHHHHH
Put plainly: SPR, mAb captured, antigen as analyte.

For assay [15], the target named is T11, S2hlx-Ex20.
T11 chain: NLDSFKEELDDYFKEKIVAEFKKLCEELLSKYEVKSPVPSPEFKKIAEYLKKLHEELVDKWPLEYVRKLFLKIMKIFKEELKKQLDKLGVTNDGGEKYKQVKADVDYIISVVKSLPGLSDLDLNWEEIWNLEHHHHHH
Briefly: SPR, mAb captured, antigen as analyte.

Assay [16] has as its target T8, S2hlx-Ex15. Briefly: SPR, mAb captured, antigen as analyte.
Assay [17] addresses T10, S2hlx-Ex17. Put plainly: SPR, mAb captured, antigen as analyte.
Assay [18] has as its target T11, S2hlx-Ex20. Briefly: SPR, mAb captured, antigen as analyte.
The next assay addresses T12, S2hlx-Ex8-Trx.
T12 chain: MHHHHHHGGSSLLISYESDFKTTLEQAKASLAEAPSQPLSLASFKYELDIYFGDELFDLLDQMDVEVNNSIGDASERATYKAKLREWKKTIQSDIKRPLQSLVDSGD
Briefly: SPR, mAb captured, antigen as analyte.

The target of assay [19] is T2, S2hlx-Ex25. Briefly: SPR, mAb captured, antigen as analyte.
Assay [20] addresses T4, S2hlx-Ex34. Put plainly: SPR, mAb captured, antigen as analyte.
Assay [21] deals with T2, S2hlx-Ex25. Briefly: ELISA; antigen coated, mAb titrated.
Assay [22] deals with T4, S2hlx-Ex34. Put plainly: ELISA; antigen coated, mAb titrated.
For the next assay, the target named is T13, S2hlx-Ex35.
T13 chain: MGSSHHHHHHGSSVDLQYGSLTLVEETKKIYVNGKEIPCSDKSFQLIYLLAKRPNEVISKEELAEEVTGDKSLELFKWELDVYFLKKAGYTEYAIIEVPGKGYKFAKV
Briefly: ELISA; antigen coated, mAb titrated.

The target in assay [23] is T9, S2hlx-Ex46. Briefly: SPR, single cycle; mAb captured on Protein A, epitope scaffold as analyte.
Assay [24] has as its target T5, S2hlx-Ex37. The assay is described as above.
In assay [25] the target is T6, S2hlx-Ex54. The description is as above.

B1: COV44-79 (antibody, V domains shown)
VH: QVQLVESGGGVVQPGRSLRLSCAASGLTFSGYAMHWVRQAPGKGLEWVAVISRDARNKYYADSVKGRFTISRDNSKKTVYLEMNSLRVEDTAVYYCAILIIPGITEPGSPDALDIWGQGTMVSVSS
VL: DIQMTQSPSSMSASVGDRVTITCRASQDISKWLAWYQQRPGKAPKLLIYAASSLQSGVPSRFSGSGSGTDFTLTISSLQPEDFATYYCQQASSFPWSITFGQGTRLEIR
The EC50 (read off the curve) is the midpoint of the concentration-response curve. Low readings indicate greater potency, high ones weaker potency. As for B1, the half-maximal effective concentration (EC50 (read off the curve)) with FP-13 is around 3 µg/mL.

B2: Cov44-26 (antibody, V domains shown)
VH: QVQLVQSGAEVKKPGASVKVSCKASGYTFSNFYMNWVRQAPGQGLEWVGLISPSAGYTAYAQMFQGRVTMTRDTSTSTVYMELSSLRSEDTAVYYCARVAVAGPNDYWGQGTLVTVSS
VL: EIVLTQSPGTLSLSPGERATLSCRASQSISSSYLAWYQQKPGQAPRLVIFAASTRATGIPDRFSGSGSGTDFTLTITRLEPEDFALYYCQHYRSSPPLWTFGQGTKVEIR
Consider B2, for which, in the assay with S2hlx-Ex25 [1], the “EC50 (read off the curve)” value is around 0.02 µg/mL.

B3: DH1498 (antibody, V domains shown)
VH: QVQLQESGPGLVKPSETLSLTCAVSGGSVSSDTYYWSWIRQPPGKGLEWIGYIYNSGSTNYNPSLKSRVTISVDTSKSQFSLNLGSVTAADTAVYYCAREGAGTYPPKNDAFDIWGQGTLVTVSS
VL: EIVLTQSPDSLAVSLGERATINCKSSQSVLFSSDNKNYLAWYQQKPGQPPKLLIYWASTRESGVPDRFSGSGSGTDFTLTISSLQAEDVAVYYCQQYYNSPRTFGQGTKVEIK
Consider B3, for which the concentration giving a half-maximal response (EC50 (read off the curve)) in assay [2] was around 0.04 µg/mL.

B4: inferred UCA of DH1501.1, DH1501.2 and DH1501.3 (antibody, V domains shown)
VH: QVQLVQSGAEVKKPGASVKVSCKASGYTFTSYYMHWVRQAPGQGLEWMGIINPSGGSTSYAQKFQGRVTMTRDTSTSTVYMELSSLRSEDTAVYYCARMSRYGAFDIWGQGIMVTVSS
VL: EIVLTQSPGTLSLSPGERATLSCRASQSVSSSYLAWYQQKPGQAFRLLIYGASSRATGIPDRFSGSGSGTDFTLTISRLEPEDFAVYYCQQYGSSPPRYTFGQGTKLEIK
For the molecule B4, the “EC50 (read off the curve)” value in assay [3] was around 0.02 µg/mL.

B5: DH1509 (antibody, V domains shown)
VH: QVQLVESGGGVVQPGRSLRLSCAASGFTLSSHGIHWVRQAPGKGLEWVAVTSFDGRNKKFGDSVKGRFTISRDNSKNTVYLQMNSLRTEDTAVYYCAKDWGDDYSRWYFDLWGRGTLVTVSS
VL: DIQMTQSPSSLSASVGDRVTITCQASHDITKYLNWYQQKPGRAPKLLIYDASNLKTGVPSRFSGSGSGTDFTFTITSLQPEDLATYYCQQSDVLPITFGQGTRLEIK
B5: the “EC50 (read off the curve)” value in assay [4] is around 0.6 µg/mL.

B6: CC40.8 mAb (antibody, V domains shown)
VH: EVQLLESGGGLVQPGGSLRLSCAASGFTFSSYVMTWARQAPGKGLEWVSAISGTGYTYYADSVKGRFTVSRDNSKNTLFLQMSSLRAEDTAVYYCAITMAPVVWGQGTTVTVSS
VL: SYELTQPPSVSVSPGQTARITCSGDALPKRYAYWYQQKSGQAPILVIYEDKKRPSGIPERLSGSKSGTVATLTISGAQVEDEADYYCYSTDSSGNHAVFGGGTQLTVL
Usually Kd stands for the equilibrium constant for the complex coming apart. The low end stands for tighter binding, the high end for weaker binding. As for B6, the dissociation constant (Kd) is 2.7 nM in assay [5]; 486 nM with S2hlx-Ex34 [6]; 849 nM with S2hlx-Ex37 [7]; 150 nM with S2hlx-Ex54 [8]; 3.4 nM in the assay with S2hlx-Ex15 [13]; 27.1 nM with S2hlx-Ex17 [14]. For the same molecule, the Kd with S2hlx-Ex20 [15] turned out to be 10.6 nM; with S2hlx-Ex15 [16], 3.4 nM; with S2hlx-Ex17 [17], 27.1 nM; with S2hlx-Ex20 [18], 10.6 nM; with S2hlx-Ex8-Trx, 1230 nM; with S2hlx-Ex25 [19], 12100 nM. The Kd stood at 3880 nM in the assay with S2hlx-Ex34 [20], 21500 nM in the assay with S2hlx-Ex46 [23], 849 nM with S2hlx-Ex37 [24] and 150 nM with S2hlx-Ex54 [25]. In addition, the “EC50 (read off the curve)” value in the assay with S2hlx-Ex15 F1148A was around 0.02 µg/mL; in the assay with S2hlx-Ex15 [9] it was around 0.02 µg/mL; in the assay with S2hlx-Ex2-Trx it was around 0.1 µg/mL; with S2hlx-Ex4-Trx, around 0.05 µg/mL; with S2hlx-Ex46 [10], around 0.2 µg/mL; in the assay with S2hlx-Ex25 [1], around 0.2 µg/mL. Moreover, the “EC50 (read off the curve)” value in the assay with S2hlx-Ex34 [11] is around 0.4 µg/mL; with S2hlx-Ex54 [12] it was around 0.04 µg/mL; in the assay with S2hlx-Ex25 [21] it was around 0.01 µg/mL; with S2hlx-Ex34 [22] it was around 0.1 µg/mL; with S2hlx-Ex35, around 0.8 µg/mL.
